Measured values from the supplement of paper PMC9233669.
This sample holds only a part of the variants without activity.

Tests used:
[1] = test system: biotinyl-Trp-oxazolone; assay: self-aminoacylation, catalytic enhancement (BWO) (fold over background); higher = more active; k-Seq, kA / k0A0; sequences stand for … in GGGAAUGGAUCCACAUCUACGAAUUC…UUCACUGCAGACUUGACGAAGCUG
How it was run: (§1)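 Each biotinyl-aminoacyl-oxazolone, at 2–1250 μM, was incubated with mutagenized RNA pools (0.43 μM) carrying a 21-nt variable region. The 50 μL reactions contained HEPES/NaCl/KCl/MgCl2/CaCl2 buffer with 5% acetonitrile at pH 6.9–7.0 and ran for 90 minutes at room temperature. After streptavidin capture, RNA was measured by qPCR in triplicate and by Illumina sequencing, and catalytic enhancement was calculated as median kA over the uncatalyzed rate from a pseudo-first-order fit of per-sequence fraction reacted.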

[2] = test system: biotinyl-Val-oxazolone; assay: self-aminoacylation, catalytic enhancement (BVO) (fold over background); higher = more active; k-Seq, kA / k0A0; sequences stand for … in GGGAAUGGAUCCACAUCUACGAAUUC…UUCACUGCAGACUUGACGAAGCUG
How it was run: as §1

[3] = test system: biotinyl-Phe-oxazolone; assay: self-aminoacylation, catalytic enhancement (BFO) (fold over background); higher = more active; k-Seq, kA / k0A0; sequences stand for … in GGGAAUGGAUCCACAUCUACGAAUUC…UUCACUGCAGACUUGACGAAGCUG
How it was run: as §1

[4] = test system: biotinyl-Met-oxazolone; assay: self-aminoacylation, catalytic enhancement (BMO) (fold over background); higher = more active; k-Seq, kA / k0A0; sequences stand for … in GGGAAUGGAUCCACAUCUACGAAUUC…UUCACUGCAGACUUGACGAAGCUG
How it was run: as §1

[5] = test system: biotinyl-Leu-oxazolone; assay: self-aminoacylation, catalytic enhancement (BLO) (fold over background); higher = more active; k-Seq, kA / k0A0; sequences stand for … in GGGAAUGGAUCCACAUCUACGAAUUC…UUCACUGCAGACUUGACGAAGCUG
How it was run: as §1

[6] = test system: biotinyl-Ile-oxazolone; assay: self-aminoacylation, catalytic enhancement (BIO) (fold over background); higher = more active; k-Seq, kA / k0A0; sequences stand for … in GGGAAUGGAUCCACAUCUACGAAUUC…UUCACUGCAGACUUGACGAAGCUG
How it was run: as §1

| Sequence | self-aminoacylation [1] | self-aminoacylation [2] | self-aminoacylation [3] | self-aminoacylation [4] | self-aminoacylation [5] | self-aminoacylation [6] |
| --- | --- | --- | --- | --- | --- | --- |
| AGUCACCUAGGUCAUUGGGUG [Fam2.2 aminoacylation ribozyme variant] | 3.42 | 3.26 | 25.8 | 4.22 | 4.04 | 3.03 |
| AGUCACCUAGGUCCUCGGGUG [Fam2.2 aminoacylation ribozyme variant] | 9.19 | 4.64 | 37.5 | 6.34 | 6.54 | 5.66 |
| AGUCACCUAGUUCAUCGGGUG [Fam2.2 aminoacylation ribozyme variant] | 5.16 | 3.29 | 24 | 4.14 | 4.05 | 3.71 |
| AGUCACCUCGGUCAUCGGGUG [Fam2.2 aminoacylation ribozyme variant] | 7.18 | 4.18 | 44.4 | 6.27 | 6.23 | 4.47 |
| AGUCAGCUAGGUCAUCGGGUG [Fam2.2 aminoacylation ribozyme variant] | 9.92 | 5.51 | 58.2 | 5.84 | 6.1 | 5.42 |
| AGUCAUCUAGGUCAUCGGGUG [Fam2.2 aminoacylation ribozyme variant] | 9.27 | 5.47 | 53.9 | 7.32 | 7.92 | 5.24 |
| AGUCCCCUGGUCAUCGAGUGA [Fam2.1 aminoacylation ribozyme variant] | 7.41 | 4.13 | 42.6 | 6.67 | 6.55 | 3.3 |
| AGUGACCUAGGUCAUCGGGUG [Fam2.2 aminoacylation ribozyme variant] | 4.64 | 3.69 | 25.7 | 3.53 | 4.73 | 3.48 |
| AGUUACCUAGGUCAUCGGGUG [Fam2.2 aminoacylation ribozyme variant] | 6.91 | 4.62 | 40.1 | 5.38 | 6.47 | 4.59 |
| AUAACCCUGGCCAUCGAGUGA [Fam2.1 aminoacylation ribozyme variant] | 3.57 | 2.09 | 11.4 | 4.48 | 2.71 | 3.35 |
| AUAACCCUGGUCAACGAGUGA [Fam2.1 aminoacylation ribozyme variant] | 6.89 | 3.33 | 31.1 | 6.45 | 5.91 | 3.32 |
| AUAACCCUGGUCAUCGAGAGA [Fam2.1 aminoacylation ribozyme variant] | 0.804 | 0.839 | 1.12 | 0.604 | 0.822 | 1.01 |
| AUAACCCUGGUCAUCGAGGGA [Fam2.1 aminoacylation ribozyme variant] | 0.626 | 1.43 | 2.14 | 1.45 | 2.12 | 1.52 |
| AUAACCCUGGUCAUCGAGUCA [Fam2.1 aminoacylation ribozyme variant] | 0.624 | 0.806 | 0.721 | 0.958 | 0.781 | 0.774 |
| AUAACCCUGGUCAUCGAGUGU [Fam2.1 aminoacylation ribozyme variant] | 16.4 | 7.4 | 69.6 | 20 | 17.9 | 6.98 |
| AUAACCCUGGUCUUCGAGUGA [Fam2.1 aminoacylation ribozyme variant] | 6.89 | 2.71 | 17.7 | 5.08 | 5.23 | 2.9 |
| AUAACGCUGGUCAUCGAGUGA [Fam2.1 aminoacylation ribozyme variant] | 5.24 | 2.76 | 15 | 4.6 | 4.06 | 3.06 |
| AUACACCGAGGUCAUCGGGUG [Fam2.2 aminoacylation ribozyme variant] | 4.15 | 4.34 | 28.8 | 5.37 | 4.55 | 4.24 |
| AUACACCUAGCUCAUCGGGUG [Fam2.2 aminoacylation ribozyme variant] | 1.24 | 2.21 | 4.61 | 2.23 | 1.91 | 1.9 |
| AUACACCUAGGUAAUCGGGUG [Fam2.2 aminoacylation ribozyme variant] | 3.83 | 2.18 | 12.3 | 2.84 | 2.07 | 1.93 |
| AUACACCUAGGUCACCGGGUG [Fam2.2 aminoacylation ribozyme variant] | 3.79 | 3.23 | 23.3 | 3.09 | 3.78 | 3.29 |
| AUACACCUAGGUUAUCGGGUG [Fam2.2 aminoacylation ribozyme variant] | 4.77 | 2.95 | 19.1 | 3.19 | 2.99 | 2.73 |
| AUACACUUCAAGCAAUCGGUC [Fam1B.1 aminoacylation ribozyme variant] | 5.86 | 0.96 | 9.74 | 0.804 | 0.979 | 1.05 |
| AUACCUCAAACAAUCGGUCUG [Fam1A.1 aminoacylation ribozyme variant] | 1.52 | 0.92 | 4.92 | 0.919 | 0.934 | 0.977 |
| AUACUCCUAGGUCAUCGGGUG [Fam2.2 aminoacylation ribozyme variant] | 3.91 | 2.98 | 27.5 | 3.69 | 5.38 | 2.97 |
